From patent US20190330344A1 (F STAR THERAPEUTICS, published 2019) come the findings set out here.

In the experiment the target is T1, cynomolgus LAG-3 expressed on DO11.10 cells (cynomolgus monkey, UniProt P18627 24-525 (human entry)).
T1 chain: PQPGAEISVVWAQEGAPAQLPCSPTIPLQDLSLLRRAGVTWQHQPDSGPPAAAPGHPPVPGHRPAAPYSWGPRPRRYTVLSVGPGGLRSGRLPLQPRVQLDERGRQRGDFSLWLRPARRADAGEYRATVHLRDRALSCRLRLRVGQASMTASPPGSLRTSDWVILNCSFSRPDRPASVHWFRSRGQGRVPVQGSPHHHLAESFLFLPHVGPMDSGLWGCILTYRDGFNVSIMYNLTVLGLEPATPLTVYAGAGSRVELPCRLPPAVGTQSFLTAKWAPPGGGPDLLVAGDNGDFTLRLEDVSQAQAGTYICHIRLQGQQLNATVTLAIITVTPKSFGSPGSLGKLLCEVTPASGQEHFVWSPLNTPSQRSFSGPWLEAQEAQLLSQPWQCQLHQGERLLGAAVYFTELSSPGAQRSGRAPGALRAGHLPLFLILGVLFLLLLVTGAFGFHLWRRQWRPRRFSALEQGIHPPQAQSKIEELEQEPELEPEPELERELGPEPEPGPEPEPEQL
Description: cell-based or functional assay.

B1: FS18-7-9/4420LALA (anti-human LAG-3 Fcab FS18-7-9 in mock mAb^2 format comprising the LALA mutation) (bispecific antibody, human IgG1, kappa, L234A L235A)
heavy: EVKLDETGGGLVQPGRPMKLSCVASGFTFSDYWMNWVRQSPEKGLEWVAQIRNKPYNYETYYSDSVKGRFTISRDDSKSSVYLQMNNLRVEDMGIYYCTGSYYGMDYWGQGTSVTVSSASTKGPSVFPLAPSSKSTSGGTAALGCLVKDYFPEPVTVSWNSGALTSGVHTFPAVLQSSGLYSLSSVVTVPSSSLGTQTYICNVNHKPSNTKVDKKVEPKSCDKTHTCPPCPAPEAAGGPSVFLFPPKPKDTLMISRTPEVTCVVVDVSHEDPEVKFNWYVDGVEVHNAKTKPREEQYNSTYRVVSVLTVLHQDWLNGKEYKCKVSNKALPAPIEKTISKAKGQPREPQVYTLPPSWDEPWGEDVSLTCLVKGFYPSDIAVEWESNGQPENNYKTTPPVLDSDGSFFLYSKLTVPYDRWVWPDEFSCSVMHEALHNHYTQKSLSLSPG
light: DVVMTQTPLSLPVSLGDQASISCRSSQSLVHSNGNTYLRWYLQKPGQSPKVLIYKVSNRFSGVPDRFSGSGSGTDFTLKISRVEAEDLGVYFCSQSTHVPWTFGGGTKLEIKRTVAAPSVFIFPPSDEQLKSGTASVVCLLNNFYPREAKVQWKVDNALQSGNSQESVTEQDSKDSTYSLSSTLTLSKADYEKHKVYACEVTHQGLSSPVTKSFNRGEC
With B1, the “EC50 of mIL-2 release, cynomolgus LAG-3 DO11.10 T cell activation assay” value stood at 5.6 nM.
